In this assay the target is VPAC2 receptor (human) (UniProt P41587). The assay is described as follows: cell-based or functional assay.
Chain of VPAC2 receptor (human) (P41587 24-438): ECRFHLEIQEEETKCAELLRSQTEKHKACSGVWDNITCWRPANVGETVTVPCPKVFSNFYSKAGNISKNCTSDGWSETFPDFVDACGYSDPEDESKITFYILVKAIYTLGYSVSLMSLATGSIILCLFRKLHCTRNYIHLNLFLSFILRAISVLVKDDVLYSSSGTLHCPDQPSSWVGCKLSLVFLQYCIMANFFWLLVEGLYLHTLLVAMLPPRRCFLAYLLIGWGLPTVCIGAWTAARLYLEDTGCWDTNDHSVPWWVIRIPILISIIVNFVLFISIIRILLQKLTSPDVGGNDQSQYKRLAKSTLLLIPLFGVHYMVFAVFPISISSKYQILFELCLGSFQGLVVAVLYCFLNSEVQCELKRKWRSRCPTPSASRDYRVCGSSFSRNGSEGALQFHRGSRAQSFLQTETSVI

“PACAP-27 (from UniProt P18509 132-158) (peptide)” came in with an EC50 (nM), cAMP SPA, VPAC2 agonist activity of 0.09 nM.
